In article PMC9482650, “Quantitative fragmentomics allow affinity mapping of interactomes” (Nature Communications, 2022):

Assays:
Assay in all cases: holdup assay
Parameters in all cases: key: below the threshold = too weak to quantify, mostly under pKd 3.1 to 4
Details in all cases: plain residues with an end cap or a label only (N-terminal biotin on a linker: ado-ado)
[1] = target: T1, APBA2_2, Q99767
T1 sequence (Q99767 654-744, limits assumed, looked up): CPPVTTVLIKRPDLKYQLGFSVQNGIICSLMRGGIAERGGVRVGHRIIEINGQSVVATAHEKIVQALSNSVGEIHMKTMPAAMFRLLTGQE

[2] = target: DLG1_1, Q12959
[3] = target: DLG4_3, P78352
DLG4_3, P78352, sequence (P78352 306-403): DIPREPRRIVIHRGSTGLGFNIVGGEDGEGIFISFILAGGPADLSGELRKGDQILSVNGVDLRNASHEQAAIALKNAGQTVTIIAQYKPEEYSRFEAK

[4] = target: FRMPD2_3, Q68DX3
FRMPD2_3, Q68DX3, sequence (Q68DX3 1073-1166): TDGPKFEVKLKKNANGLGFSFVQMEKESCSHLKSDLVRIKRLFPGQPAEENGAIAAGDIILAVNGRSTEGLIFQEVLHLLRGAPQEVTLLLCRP

[5] = target: GORASP1, Q9BQQ3
GORASP1, Q9BQQ3, sequence (Q9BQQ3 1-208): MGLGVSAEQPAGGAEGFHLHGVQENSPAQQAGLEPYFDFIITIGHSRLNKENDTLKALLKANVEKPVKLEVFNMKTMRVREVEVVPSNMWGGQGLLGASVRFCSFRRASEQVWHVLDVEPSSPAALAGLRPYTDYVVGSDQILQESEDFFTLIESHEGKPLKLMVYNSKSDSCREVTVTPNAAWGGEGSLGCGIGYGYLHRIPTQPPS

[6] = target: T2, GRIP1_4, Q9Y3R0
T2 sequence (Q9Y3R0 467-571, limits assumed, looked up): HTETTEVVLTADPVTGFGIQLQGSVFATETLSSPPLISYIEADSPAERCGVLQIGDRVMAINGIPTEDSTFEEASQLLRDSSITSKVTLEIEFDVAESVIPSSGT

[7] = target: GRIP2_6, Q9C0E4
GRIP2_6, Q9C0E4, sequence (Q9C0E4 648-740): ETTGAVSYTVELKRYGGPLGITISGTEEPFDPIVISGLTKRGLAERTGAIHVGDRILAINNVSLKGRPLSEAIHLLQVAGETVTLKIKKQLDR

[8] = target: HTRA2, O43464
HTRA2, O43464, sequence (O43464 355-458): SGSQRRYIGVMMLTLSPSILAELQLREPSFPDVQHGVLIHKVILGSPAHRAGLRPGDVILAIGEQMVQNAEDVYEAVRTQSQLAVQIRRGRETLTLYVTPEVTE

[9] = target: IL16_1, Q14005
IL16_1, Q14005, sequence (Q14005 210-306): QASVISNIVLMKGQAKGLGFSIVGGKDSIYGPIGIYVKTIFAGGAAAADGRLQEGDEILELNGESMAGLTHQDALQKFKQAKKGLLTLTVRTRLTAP

[10] = target: LNX1_1, Q8TBB1
LNX1_1, Q8TBB1, sequence (Q8TBB1 261-371): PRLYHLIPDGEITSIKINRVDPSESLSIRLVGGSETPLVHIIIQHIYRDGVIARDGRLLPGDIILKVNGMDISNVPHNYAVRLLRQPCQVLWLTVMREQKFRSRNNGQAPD

[11] = target: LNX1_2, Q8TBB1
LNX1_2, Q8TBB1, sequence (Q8TBB1 371-470): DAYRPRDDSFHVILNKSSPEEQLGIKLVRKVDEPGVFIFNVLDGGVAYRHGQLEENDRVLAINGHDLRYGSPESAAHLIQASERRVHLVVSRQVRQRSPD

[12] = target: T3, LRRC7, Q96NW7
T3 sequence (Q96NW7 1440-1537, limits assumed, looked up): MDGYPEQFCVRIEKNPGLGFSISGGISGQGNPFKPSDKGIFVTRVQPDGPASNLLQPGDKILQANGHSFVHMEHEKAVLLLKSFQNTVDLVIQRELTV

[13] = target: MAGI1_2, Q96QZ7
MAGI1_2, Q96QZ7, sequence (Q96QZ7 456-580): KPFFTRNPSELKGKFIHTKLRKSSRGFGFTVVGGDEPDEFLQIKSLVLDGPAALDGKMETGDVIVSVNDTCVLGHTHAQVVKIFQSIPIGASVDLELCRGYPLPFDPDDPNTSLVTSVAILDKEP

[14] = target: MAGI2_4, Q86UL8
MAGI2_4, Q86UL8, sequence (Q86UL8 772-865): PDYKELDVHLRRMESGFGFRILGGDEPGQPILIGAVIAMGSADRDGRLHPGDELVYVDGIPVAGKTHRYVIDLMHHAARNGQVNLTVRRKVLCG

[15] = target: T4, MPDZ_5, O75970
T4 sequence (O75970 695-796, limits assumed, looked up): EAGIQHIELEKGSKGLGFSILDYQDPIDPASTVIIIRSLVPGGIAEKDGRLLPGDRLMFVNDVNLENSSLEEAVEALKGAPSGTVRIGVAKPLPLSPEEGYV

[16] = target: T5, MPP2, Q14168
T5 sequence (Q14168 180-250, limits assumed, looked up): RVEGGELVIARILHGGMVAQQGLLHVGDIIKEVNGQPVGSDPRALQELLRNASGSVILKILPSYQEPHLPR

[17] = target: T6, MPP6, Q9NZW5
T6 sequence (Q9NZW5 125-219, limits assumed, looked up): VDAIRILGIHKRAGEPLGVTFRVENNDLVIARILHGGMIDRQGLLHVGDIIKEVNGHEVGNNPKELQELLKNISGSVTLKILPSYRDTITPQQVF

[18] = target: T7, MPP7, Q5T2T1
T7 sequence (Q5T2T1 134-230, limits assumed, looked up): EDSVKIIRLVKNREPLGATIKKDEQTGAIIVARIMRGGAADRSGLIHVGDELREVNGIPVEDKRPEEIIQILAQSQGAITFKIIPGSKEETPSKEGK

[19] = target: T8, NHERF3_1, Q5T2W1
T8 sequence (Q5T2W1 4-100, limits assumed, looked up): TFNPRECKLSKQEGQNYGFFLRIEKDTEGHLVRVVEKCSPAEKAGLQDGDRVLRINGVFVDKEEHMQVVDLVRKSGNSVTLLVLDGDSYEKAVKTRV

[20] = target: T9, PDZD2_2, O15018
T9 sequence (O15018 329-429, limits assumed, looked up): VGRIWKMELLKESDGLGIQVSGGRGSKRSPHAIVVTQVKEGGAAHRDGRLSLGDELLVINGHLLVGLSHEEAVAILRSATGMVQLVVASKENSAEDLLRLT

[21] = target: T10, PDZD7_3, Q9H5P4
T10 sequence (Q9H5P4 857-944, limits assumed, looked up): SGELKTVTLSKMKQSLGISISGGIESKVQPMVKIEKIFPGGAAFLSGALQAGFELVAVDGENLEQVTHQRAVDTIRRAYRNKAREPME

[22] = target: T11, RHPN1, Q8TCX5
T11 sequence (Q8TCX5 508-602, limits assumed, looked up): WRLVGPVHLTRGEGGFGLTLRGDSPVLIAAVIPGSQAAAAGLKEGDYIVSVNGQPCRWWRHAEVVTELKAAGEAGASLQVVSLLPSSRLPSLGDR

[23] = target: SCRIB_2, Q14160
SCRIB_2, Q14160, sequence (Q14160 857-960): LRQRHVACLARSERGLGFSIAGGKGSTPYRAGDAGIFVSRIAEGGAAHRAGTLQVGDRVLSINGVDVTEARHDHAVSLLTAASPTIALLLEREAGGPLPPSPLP

[24] = target: T12, SYNJ2BP, P57105
T12 sequence (P57105 8-110, limits assumed, looked up): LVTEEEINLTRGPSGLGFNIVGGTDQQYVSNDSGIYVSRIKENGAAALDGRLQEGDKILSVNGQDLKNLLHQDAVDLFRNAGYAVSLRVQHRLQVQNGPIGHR

[25] = target: T13, TJP3_3, O95049
T13 sequence (O95049 375-456, limits assumed, looked up): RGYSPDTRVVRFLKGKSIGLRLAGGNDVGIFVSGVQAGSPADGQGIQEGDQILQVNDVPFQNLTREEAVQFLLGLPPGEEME

Binder: DTKNYKQTSV [CRIPT, Q9P021]
- pKd [1]: below the threshold
- pKd [2]: 4.35
- pKd [3]: 5.39
- pKd [4]: below the threshold
- pKd [5]: below the threshold
- pKd [6]: below the threshold
- pKd [7]: 3.52
- pKd [8]: below the threshold
- pKd [9]: below the threshold
- pKd [10]: 3.78
- pKd [11]: below the threshold
- pKd [12]: 3.92
- pKd [13]: 4.32
- pKd [14]: 3.87
- pKd [15]: below the threshold
- pKd [16]: below the threshold
- pKd [17]: below the threshold
- pKd [18]: below the threshold
- pKd [19]: 4.59
- pKd [20]: 4.76
- pKd [21]: 3.94
- pKd [22]: 4.07
- pKd [23]: 4.61
- pKd [24]: 5.12
- pKd [25]: below the threshold

Binder: IDESKKEWLI [CNTNAP2, Q9UHC6]
- pKd [1]: below the threshold
- pKd [2]: below the threshold
- pKd [3]: below the threshold
- pKd [4]: 3.51
- pKd [5]: 4.25
- pKd [6]: below the threshold
- pKd [7]: 3.57
- pKd [8]: 3.49
- pKd [9]: below the threshold
- pKd [10]: below the threshold
- pKd [11]: 3.66
- pKd [12]: below the threshold
- pKd [13]: below the threshold
- pKd [14]: 3.47
- pKd [15]: below the threshold
- pKd [16]: 4.78
- pKd [17]: 4.54
- pKd [18]: 5.46
- pKd [19]: below the threshold
- pKd [20]: 4.54
- pKd [21]: below the threshold
- pKd [22]: below the threshold
- pKd [23]: below the threshold
- pKd [24]: below the threshold
- pKd [25]: below the threshold

Binder: KSRVAFFEEL [NF2, P35240;P35240-1]
- pKd [1]: below the threshold
- pKd [2]: below the threshold
- pKd [4]: below the threshold
- pKd [5]: 4.06
- pKd [6]: below the threshold
- pKd [11]: below the threshold
- pKd [15]: below the threshold
- pKd [16]: below the threshold
- pKd [17]: below the threshold
- pKd [18]: below the threshold
- pKd [19]: 4.18
- pKd [21]: 4.12
- pKd [22]: below the threshold
- pKd [23]: below the threshold
- pKd [24]: below the threshold
- pKd [25]: below the threshold

Binder: SRSVVESDEL [MYPN, Q86TC9]
- pKd [1]: below the threshold
- pKd [2]: below the threshold
- pKd [3]: below the threshold
- pKd [4]: below the threshold
- pKd [5]: below the threshold
- pKd [6]: below the threshold
- pKd [7]: 3.95
- pKd [8]: below the threshold
- pKd [9]: below the threshold
- pKd [10]: below the threshold
- pKd [11]: below the threshold
- pKd [12]: below the threshold
- pKd [13]: below the threshold
- pKd [14]: below the threshold
- pKd [15]: below the threshold
- pKd [16]: below the threshold
- pKd [17]: below the threshold
- pKd [18]: below the threshold
- pKd [19]: 5.44
- pKd [20]: below the threshold
- pKd [21]: 3.75
- pKd [22]: below the threshold
- pKd [23]: below the threshold
- pKd [24]: below the threshold
- pKd [25]: below the threshold

Binder: PSVGSKKTVL [REELD1, A0A1B0GV85]
- pKd [1]: below the threshold
- pKd [2]: below the threshold
- pKd [3]: below the threshold
- pKd [4]: below the threshold
- pKd [5]: below the threshold
- pKd [6]: below the threshold
- pKd [7]: below the threshold
- pKd [8]: below the threshold
- pKd [9]: below the threshold
- pKd [10]: below the threshold
- pKd [11]: below the threshold
- pKd [12]: below the threshold
- pKd [13]: 3.56
- pKd [14]: below the threshold
- pKd [15]: below the threshold
- pKd [16]: below the threshold
- pKd [17]: below the threshold
- pKd [18]: below the threshold
- pKd [19]: 3.72
- pKd [20]: 3.52
- pKd [21]: 4.67
- pKd [22]: 3.92
- pKd [23]: below the threshold
- pKd [24]: below the threshold
- pKd [25]: below the threshold

Binder: KRPEMTSSSV [MUC3A, MUC3B, Q02505;Q9H195]
- pKd [1]: below the threshold
- pKd [2]: 1.76
- pKd [3]: 1.91
- pKd [4]: below the threshold
- pKd [5]: below the threshold
- pKd [7]: below the threshold
- pKd [8]: below the threshold
- pKd [10]: 1.88
- pKd [11]: below the threshold
- pKd [12]: below the threshold
- pKd [14]: 1.79
- pKd [15]: below the threshold
- pKd [16]: below the threshold
- pKd [17]: below the threshold
- pKd [18]: below the threshold
- pKd [22]: 3.84
- pKd [24]: 5.02
- pKd [25]: below the threshold
